Assay [1] has as its system Arabidopsis. The experiment in a line: Effective dose distinguishing sensitive from resistant Arabidopsis. Format: in vivo.
Assay [2] has as its system corn plants transfected with 24DT02 nucleotide sequence. Nature of the assay: Herbicide-resistance effect test of transgenic corn plants (24DT02; strains S1-S3). Format: in vivo, maize. The note with it: for resistance levels against 2,4-D dimethyl ammonium salt and agroxone, compared among the sequences: corn plants transformed with the respective sequence. The protocol: Herbicide resistance effects tests to 2,4-D dimethyl ammonium salt and agroxone of maize plants containing 24DT02 nucleotide sequence, 24DT02 substituted nucleotide sequence, 24DT02 truncated nucleotide sequence, 24DT02 added nucleotide sequence, control nucleotide sequence respectively and wild type maize plants (stages V3-V4) were performed respectively.
Maize plants containing 24DT02 nucleotide sequence, 24DT02 substituted nucleotide sequence, 24DT02 truncated nucleotide sequence, 24DT02 added nucleotide sequence, control nucleotide sequence respectively and wild type maize plants were taken and spayed with 2,4-D dimethyl ammonium salt (8960 g ae/ha, 16-folds concentration in field), agroxone (8960 g ae/ha, 16-folds concentration in field) and blank solvent (water) respectively. Prop root development was counted 21 days after spaying. Three strains (S1, S2, and S3) of corn plants transfected with 24DT02 nucleotide sequence, two strains (S4 and S5) of corn plants transfected with 24DT02 substituted nucleotide sequence, two strains (S6 and S7) of corn plants transfected with 24DT02 truncated nucleotide sequence, two strains (S8 and S9) of corn plants transfected with 24DT02 added nucleotide sequence, two strains (S10 and S11) of corn plants transfected with control nucleotide sequence and 1 strain of wild type (CK) corn were selected and 10-15 plants from each stain were tested.

Assay [3] deals with Arabidopsis T1 plants transformed with 24DT02 nucleotide sequence. Nature of the assay: Herbicide resistance effect test of transgenic Arabidopsis T1 plants (24DT02). The format is in vivo, Arabidopsis thaliana. Particulars: for resistance levels to 2,4-D dimethyl ammonium salt and agroxone, compared among the sequences: Arabidopsis T1 plants transformed with the respective sequence. The procedure: On 7 days after planting (DAP) and 11 DAP respectively, the T1 plants (cotyledon stage and 2-4 leaves stage, respectively) were sprayed with 0.2% of Liberty herbicide solution (200 g ai/L glufosinate-ammonium) using DeVilbiss compressed air nozzle at a spraying volume of 10 ml/disc (703 L/ha) so as to provide effective amount of glufosinate-ammonium (280 g ai/ha) for each application. The survival plants (actively growing plants) were verified 4 to 7 days after the last spraying and transferred into the square pot (7 cm×7 cm) made from vermiculite and horses dung (3-5 plants per pot). The transplanted plants were covered with moisturizing mask for 3-4 days and placed in culture room at 22° C. or directly into the greenhouse as described above. Then the mask was removed and the plants were planted in greenhouse (22±5° C., 50±30% RH, 14 hours of lighting: 10 hours of darkness, minimum […] natural light+complement light) at least one day before testing the ability of 24DT02 to provide the resistance to phenoxy auxin herbicide.
24DT02 gene was used to transform Arabidopsis for the first time. At first, T1 transformants were selected from the background of un-transformed seeds, using glufosinate-ammonium selection scheme. About 40000 T1 seeds were screened among which 195 strains of T1 generation positive transformants (PAT gene) were identified, i.e. the transformation efficiency was about 0.5%. Herbicide resistance effect tests to 2,4-D dimethyl ammonium salt and agroxone of Arabidopsis T1 plants transformed with 24DT02 nucleotide sequence, substituted 24DT02 nucleotide sequence, truncated 24DT02 nucleotide sequence, added 24DT02 nucleotide sequence, control nucleotide sequence respectively and wild-type Arabidopsis plants were performed after 18 days of planting.
Arabidopsis T1 plants transformed with 24DT02 nucleotide sequence, substituted 24DT02 nucleotide sequence, truncated 24DT02 nucleotide sequence, added 24DT02 nucleotide sequence and control nucleotide sequence respectively and wild-type Arabidopsis plants were sprayed with 2,4-D dimethyl ammonium salt (560 g ae/ha, 1-fold concentration in field), agroxone (560 g ae/ha, 1-fold concentration in field) and blank solvent (water). Resistance conditions of the plants were counted 7 days and 14 days after spraying. Plants with growth conditions consistent with blank solvent (water) 7 days after spaying were classified as highly resistant plants; Plants with curly rosette leaves 7 days after spaying were classified as moderately resistant plants; Plants incapable of bolting 14 days after spaying were classified as low-resistant plants and the dead plants 14 days after spaying were classified as non-resistant plants. Because each Arabidopsis T1 plant was an independent transformation event, significant differences of individual T1 responses were expected under a given dose.

For `O=C(O)COc1ccc(Cl)cc1Cl` [2,4-D, 2,4-dichlorophenoxyacetic acid], in assay [1], the “effective dose to distinguish the sensitive plants from plants with average resistance” value amounted to 50 g ae/ha.

B1: 24DT02-a: added 24DT02 (SEQ ID NO: 5), Ala, Leu and Val added after the 298th amino acid (protein)
chain: MERHAMSNGKQIVRIEPLPGKTFGAVVTGVRLSELDEDTFSLLYREWLQYALLIFPAQYLTDSQQRDAASKFGCLVEGLEAVEISNLLPTGEVRAAPDDDMMKIIRGNMQWHQDNTYMPLQAKGALFSAKRVPSSGGETGFADMRAAWDALDTETQDRLANLSAYHSLAQSQKNLGEDVKSSDSEYIGYGLDVSTVPRRSLLKIHPETDRKTLAVGRHAFGVTGMAEQESTQFVSDLIDFAVADESRTYHHIWSEGDAILWDNRCLMHRACPWNFSQPRVMLHSRIAGDPSTEAALNSALV
modifications: 24DT02 added nucleotide sequence
Consider B1, for which, in assay [2], the “resistance levels against 2,4-D dimethyl ammonium salt and agroxone, compared among the sequences” value is “didn't show significant differences”. In assay [3], the “resistance levels to 2,4-D dimethyl ammonium salt and agroxone, compared among the sequences” value is on record as “didn't show significant differences”.

B2: 24DT02: herbicide-resistant protein of 298 amino acids, SEQ ID NO: 2, encoded by nucleotide sequence SEQ ID NO: 1 (protein)
chain: MERHAMSNGKQIVRIEPLPGKTFGAVVTGVRLSELDEDTFSLLYREWLQYALLIFPAQYLTDSQQRDAASKFGCLVEGLEAVEISNLLPTGEVRAAPDDDMMKIIRGNMQWHQDNTYMPLQAKGALFSAKRVPSSGGETGFADMRAAWDALDTETQDRLANLSAYHSLAQSQKNLGEDVKSSDSEYIGYGLDVSTVPRRSLLKIHPETDRKTLAVGRHAFGVTGMAEQESTQFVSDLIDFAVADESRTYHHIWSEGDAILWDNRCLMHRACPWNFSQPRVMLHSRIAGDPSTEAALNS
modifications: 24DT02 amino acid sequence
In the case of B2, the “resistance levels against 2,4-D dimethyl ammonium salt and agroxone, compared among the sequences” value in assay [2] is listed as “didn't show significant differences”. The “herbicide resistance conferred to plants” value is “conferred high resistance against herbicides to the transgenic maize plants” in assay [2] (transgenic maize plants, 2,4-D dimethyl ammonium salt and agroxone 8960 g ae/ha, Table 2); “conferred herbicide resistance to individual Arabidopsis plants” in assay [3] (Arabidopsis T1 plants, 2,4-D dimethyl ammonium salt and agroxone 560 g ae/ha, Table 1 and FIG. 4). Further, the “resistance levels to 2,4-D dimethyl ammonium salt and agroxone, compared among the sequences” value in assay [3] is given as “didn't show significant differences”.

B3: 24DT02-i: substituted 24DT02 (SEQ ID NO: 3), in which the Met267 was substituted with Leu (protein)
chain: MERHAMSNGKQIVRIEPLPGKTFGAVVTGVRLSELDEDTFSLLYREWLQYALLIFPAQYLTDSQQRDAASKFGCLVEGLEAVEISNLLPTGEVRAAPDDDMMKIIRGNMQWHQDNTYMPLQAKGALFSAKRVPSSGGETGFADMRAAWDALDTETQDRLANLSAYHSLAQSQKNLGEDVKSSDSEYIGYGLDVSTVPRRSLLKIHPETDRKTLAVGRHAFGVTGMAEQESTQFVSDLIDFAVADESRTYHHIWSEGDAILWDNRCLLHRACPWNFSQPRVMLHSRIAGDPSTEAALNS
modifications: 24DT02 substituted nucleotide sequence
On to B3, for which, in assay [2], the “resistance levels against 2,4-D dimethyl ammonium salt and agroxone, compared among the sequences” value was “didn't show significant differences”. For the same molecule, the “resistance levels to 2,4-D dimethyl ammonium salt and agroxone, compared among the sequences” value in assay [3] was “didn't show significant differences”.

B4: 24DT02-t: truncated 24DT02 (SEQ ID NO: 4), amino acids from 1 to 295 of 24DT02 amino acid sequence (protein)
chain: MERHAMSNGKQIVRIEPLPGKTFGAVVTGVRLSELDEDTFSLLYREWLQYALLIFPAQYLTDSQQRDAASKFGCLVEGLEAVEISNLLPTGEVRAAPDDDMMKIIRGNMQWHQDNTYMPLQAKGALFSAKRVPSSGGETGFADMRAAWDALDTETQDRLANLSAYHSLAQSQKNLGEDVKSSDSEYIGYGLDVSTVPRRSLLKIHPETDRKTLAVGRHAFGVTGMAEQESTQFVSDLIDFAVADESRTYHHIWSEGDAILWDNRCLMHRACPWNFSQPRVMLHSRIAGDPSTEAA
modifications: 24DT02 truncated nucleotide sequence
B4: the “resistance levels against 2,4-D dimethyl ammonium salt and agroxone, compared among the sequences” value in assay [2] is listed as “didn't show significant differences”. The “resistance levels to 2,4-D dimethyl ammonium salt and agroxone, compared among the sequences” value in assay [3] was “didn't show significant differences”.

The record behind these values is patent publication US9462805B2, “Herbicide-resistant proteins, encoding genes, and uses thereof” (Beijing Dabeinong Technology Group Co., Ltd., priority 2012, dated 2016).
